Test results as given in paper PMC4132731, “Crystal structure of RNase H3–substrate complex reveals parallel evolution of RNA/DNA hybrid recognition”.

Biological target: T1, Ta-RNase H3 D78N (Thermovibrio ammonificans, UniProt E8T217 1-270, D78N)
T1 sequence: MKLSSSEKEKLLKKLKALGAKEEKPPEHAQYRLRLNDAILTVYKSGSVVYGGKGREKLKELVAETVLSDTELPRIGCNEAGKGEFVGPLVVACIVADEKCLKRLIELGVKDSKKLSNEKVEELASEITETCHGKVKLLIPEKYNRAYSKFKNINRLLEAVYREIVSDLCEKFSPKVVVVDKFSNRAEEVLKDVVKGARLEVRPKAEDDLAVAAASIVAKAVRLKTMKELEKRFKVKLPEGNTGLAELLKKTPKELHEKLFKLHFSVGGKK
Assay: X-ray crystallography (2.1 A); Mg2+ (metal ion A only); sulfate; EMSA: 10% native TAE polyacrylamide gel, binding buffer not given in the material; crystals: 0.2 M ammonium sulfate, 0.1 M BisTris pH 5.5, 25% PEG 3350, 10 mM spermine tetrahydrochloride, protein:substrate 1:1.2
Settings: protein: recombinant; tags: N-terminal His-SUMO tag removed with SENP; extra N-terminal Ser0 before Met1 (cloning artifact); blunt

B1: 19-bp RNA/DNA hybrid (DNA:RNA)
RNA: GAGUGCGACACCUGAUUCC
DNA: GGAATCAGGTGTCGCACTC
- binding result: binds
